Columns and labels:
ClpS (Escherichia coli) = ClpS (Escherichia coli) (UniProt P0A8Q6); details: cited from earlier work
[1] = target: ClpS (additional molecules) (Escherichia coli) (UniProt P0A8Q6); details: cited from earlier work
[2] = target: full-length Mycobacterium tuberculosis ClpC1 (Mycobacterium tuberculosis H37Rv) (UniProt P9WPC9)
[3] = target: T1, full-length Mycobacterium tuberculosis ClpC1 (Mycobacterium tuberculosis H37Rv, UniProt P9WPC9 1-848); assay: pull-down; details: both partners purified
T1 construct: ClpC1 AAA+ ATPase, M. tuberculosis H37Rv, Rv3596c, full length; also called wild-type M. tuberculosis ClpC1; Full-Length ClpC1; not shown: His6-SUMO, N-terminal, cleaved
T1 sequence (P9WPC9 whole entry): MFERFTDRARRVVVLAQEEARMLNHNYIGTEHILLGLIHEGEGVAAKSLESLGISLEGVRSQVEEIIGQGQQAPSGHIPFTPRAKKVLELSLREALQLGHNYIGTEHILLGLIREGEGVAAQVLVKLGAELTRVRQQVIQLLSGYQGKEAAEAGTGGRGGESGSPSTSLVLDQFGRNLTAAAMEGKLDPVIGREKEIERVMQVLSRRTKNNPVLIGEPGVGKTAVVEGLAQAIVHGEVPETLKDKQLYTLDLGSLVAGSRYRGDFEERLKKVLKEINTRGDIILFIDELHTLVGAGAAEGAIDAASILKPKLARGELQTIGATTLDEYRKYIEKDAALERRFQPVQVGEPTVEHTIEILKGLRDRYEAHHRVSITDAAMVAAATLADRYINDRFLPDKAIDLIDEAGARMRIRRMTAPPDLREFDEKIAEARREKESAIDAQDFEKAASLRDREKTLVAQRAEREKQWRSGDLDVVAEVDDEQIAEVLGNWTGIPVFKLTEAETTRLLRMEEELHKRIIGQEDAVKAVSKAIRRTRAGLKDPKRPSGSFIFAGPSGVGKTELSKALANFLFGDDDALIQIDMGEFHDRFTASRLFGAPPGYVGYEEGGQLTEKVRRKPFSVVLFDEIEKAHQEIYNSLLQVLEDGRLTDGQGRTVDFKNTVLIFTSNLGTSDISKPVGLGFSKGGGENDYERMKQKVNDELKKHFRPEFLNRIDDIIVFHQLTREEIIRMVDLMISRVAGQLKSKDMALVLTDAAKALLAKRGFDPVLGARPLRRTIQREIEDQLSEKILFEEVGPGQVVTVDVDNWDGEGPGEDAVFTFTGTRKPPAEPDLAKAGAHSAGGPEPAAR

Sequence of full-length Mycobacterium tuberculosis ClpC1 (Mycobacterium tuberculosis H37Rv) (P9WPC9 whole entry): as above
Sequence of ClpS (Escherichia coli) (P0A8Q6 whole entry): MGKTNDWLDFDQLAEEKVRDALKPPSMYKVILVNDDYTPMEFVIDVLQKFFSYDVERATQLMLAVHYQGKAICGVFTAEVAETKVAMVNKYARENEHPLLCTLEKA
Sequence of ClpS (additional molecules) (Escherichia coli) (P0A8Q6 whole entry): as above

Question: With ClpA (from UniProt P0ABH9) as the molecule, how does the Kd (ClpS (Escherichia coli)) read?
Answer: 40 nM

Question: And the Kd [1]?
Answer: > 700 nM

B1: Mycobacterium tuberculosis ClpS (His6-SUMO tag removed) (natural protein)
chain: MAVVSAPAKPGTTWQRESAPVDVTDRAWVTIVWDDPVNLMSYVTYVFQKLFGYSEPHATKLMLQVHNEGKAVVSAGSRESMEVDVSKLHAAGLWATMQQDR
Question: Which results are given for B1?
Answer: average binding stoichiometry inferred from k (UF,app) against [ClpS]T/[ClpC1]T, stopped-flow unfolding of SsrA-KaedeRed (ClpC1 subunits per ClpS) [2]: 2; inflection point of k (UF,app) against the ratio of total ClpS to total ClpC1 monomer concentration, stopped-flow unfolding of SsrA-KaedeRed ([ClpS]T/[ClpC1]T) [2]: 0.65

B2: His6-SUMO-ClpS (Mycobacterium tuberculosis ClpS adaptor protein, His6-SUMO fusion) (natural protein)
chain: B1 chain
notes: also called His6-ClpS; His6-tagged ClpS; not shown: His6, N-terminal, kept; SUMO, N-terminal, kept
Question: Does B2 bind [3]?
Answer: binds
